Reference: the supplement of paper PMC11316812
± gives the standard deviation of the averaged measurements.

Columns and labels:
[1] = test system: MCF7; experiment: percentage of EdU-negative (G0-arrested) nuclei per well, 72 h; higher = more G0 arrest; conditions: reference: sequence is the full UniProt precursor, the tested protein was the secreted form or ectodomain
[2] = test system: hTERT-HMEC; experiment: as above; conditions: reference: sequence is the full UniProt precursor, the tested protein was the secreted form or ectodomain
[3] = protein concentration 0.0155 µM
[4] = protein concentration 0.0357143 µM
[5] = protein concentration 0.357143 µM
[6] = protein concentration 0.01075 µM
[7] = protein concentration 0.1075 µM
[8] = protein concentration 0.0225 µM
[9] = protein concentration 0.01025 µM
[10] = protein concentration 0.1025 µM
[11] = protein concentration 0.02025 µM
[12] = protein concentration 0.2025 µM
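Also: secreted proteins added to cultured cells, EdU pulse at the end, nuclei found by Hoechst imaging, EdU status from nuclear versus surrounding ring intensity ratio, PBS as neutral control.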

MVPEVRVLSSLLGLALLWFPLDSHARARPDMFCLFHGKRYSPGESWHPYLEPQGLMYCLRCTCSEGAHVSCYRLHCPPVHCPQPVTEPQQCCPKCVEPHTPSGLRAPPKSCQHNGTMYQHGEIFSAHELFPSRLPNQCVLCSCTEGQIYCGLTTCPEPGCPAPLPLPDSCCQACKDEASEQSDEEDSVQSLHGVRHPQDPCSSDAGRKRGPGTPAPTGLSAPLSFIPRHFRPKGAGSTTVKIVLKEKHKKACVHGGKTYSHGEVWHPAFRAFGPLPCILCTCEDGRQDCQRVTCPTEYPCRHPEKVAGKCCKICPEDKADPGHSEISSTRCPKAPGRVLVHTSVSPSPDNLRRFALEHEASDLVEIYLWKLVKGIFHLTQIKKVRKQDFQKEAQHFRLLAGPHEGHWNVFLAQTLELKVTASPDKVTKT [Q6WN34]
percentage of EdU-negative [1, 3]: 25.2 ± 1.1% | percentage of EdU-negative ([1]; protein concentration 0.155 µM): 27.3 ± 1.6% | percentage of EdU-negative [2, 3]: 5.6 ± 0.62% | percentage of EdU-negative ([2]; protein concentration 0.155 µM): 7.92 ± 0.96%

MVPKLFTSQICLLLLLGLLAVEGSLHVKPPQFTWAQWFETQHINMTSQQCTNAMQVINNYQRRCKNQNTFLLTTFANVVNVCGNPNMTCPSNKTRKNCHHSGSQVPLIHCNLTTPSPQNISNCRYAQTPANMFYIVACDNRDQRRDPPQYPVVPVHLDRII
percentage of EdU-negative [1, 4]: 24.9 ± 1.8% | percentage of EdU-negative [1, 5]: 27 ± 0.65% | percentage of EdU-negative [2, 4]: 4.435 ± 0.01% | percentage of EdU-negative [2, 5]: 5.25 ± 0.32%

MVPKLFTSQICLLLLLGLMGVEGSLHARPPQFTRAQWFAIQHISLNPPRCTIAMRAINNYRWRCKNQNTFLRTTFANVVNVCGNQSIRCPHNRTLNNCHRSRFRVPLLHCDLINPGAQNISNCTYADRPGRRFYVVACDNRDPRDSPRYPVVPVHLDTTI
percentage of EdU-negative ([1]; protein concentration 0.022 µM): 26.3 ± 2.1% | percentage of EdU-negative ([1]; protein concentration 0.22 µM): 25.35 ± 0.13% | percentage of EdU-negative ([2]; protein concentration 0.022 µM): 5.32 ± 0.8% | percentage of EdU-negative ([2]; protein concentration 0.22 µM): 6.25 ± 2.1%

MVPRIFAPAYVSVCLLLLCPREVIAPAGSEPWLCQPAPRCGDKIYNPLEQCCYNDAIVSLSETRQCGPPCTFWPCFELCCLDSFGLTNDFVVKLKVQGVNSQCHSSPISSKCESRRRFP [Q6UWQ7]
percentage of EdU-negative [1, 6]: 24.7 ± 0.71% | percentage of EdU-negative [1, 7]: 25.6 ± 1.1% | percentage of EdU-negative [2, 6]: 5.54 ± 1.2% | percentage of EdU-negative [2, 7]: 6.18 ± 1.3%

MVPRISAAIFIFELLGSNSEGVTDLRLWLCQPAPRCGEWTYNPLEQCCDDGVILDLNQTRLCGSSCTFWPCFQHCCLESLGSQNQTVVRFKVPGMKPDCKSSPITRICAQEYHPKSPVSRSDLI [Q6B9Z1]
percentage of EdU-negative [1, 8]: 24.3 ± 0.92% | percentage of EdU-negative ([1]; protein concentration 0.225 µM): 24.9 ± 0.9% | percentage of EdU-negative [2, 8]: 4.65 ± 1.1% | percentage of EdU-negative ([2]; protein concentration 0.225 µM): 5.64 ± 0.86%

MVRARHQPGGLCLLLLLLCQFMEDRSAQAGNCWLRQAKNGRCQVLYKTELSKEECCSTGRLSTSWTEEDVNDNTLFKWMIFNGGAPNCIPCKETCENVDCGPGKKCRMNKKNKPRCVCAPDCSNITWKGPVCGLDGKTYRNECALLKARCKEQPELEVQYQGRCKKTCRDVFCPGSSTCVVDQTNNAYCVTCNRICPEPASSEQYLCGNDGVTYSSACHLRKATCLLGRSIGLAYEGKCIKAKSCEDIQCTGGKKCLWDFKVGRGRCSLCDELCPDSKSDEPVCASDNATYASECAMKEAACSSGVLLEVKHSGSCNSISEDTEEEEEDEDQDYSFPISSILEW
percentage of EdU-negative [1, 9]: 25.7 ± 1.4% | percentage of EdU-negative [1, 10]: 26.2 ± 0.46% | percentage of EdU-negative [2, 9]: 5.35 ± 0.64% | percentage of EdU-negative [2, 10]: 6.11 ± 0.15%

MVRLAAELLLLLGLLLLTLHITVLRGSGAADGPDAAAGNASQAQLQNNLNVGSDTTSETSFSLSKEAPREHLDHQAAHQPFPRPRFRQETGHPSLQRDFPRSFLLDLPNFPDLSKADINGQNPNIQVTIEVVDGPDSEADKDQHPENKPSWSVPSPDWRAWWQRSLSLARANSGDQDYKYDSTSDDSNFLNPPRGWDHTAPGHRTFETKDQPEYDSTDGEGDWSLWSVCSVTCGNGNQKRTRSCGYACTATESRTCDRPNCPGIEDTFRTAATEVSLLAGSEEFNATKLFEVDTDSCERWMSCKSEFLKKYMHKVMNDLPSCPCSYPTEVAYSTADIFDRIKRKDFRWKDASGPKEKLEIYKPTARYCIRSMLSLESTTLAAQHCCYGDNMQLITRGKGAGTPNLISTEFSAELHYKVDVLPWIICKGDWSRYNEARPPNNGQKCTESPSDEDYIKQFQEAREY [B1AKI9]
percentage of EdU-negative [1, 11]: 25.3 ± 2.1% | percentage of EdU-negative [1, 12]: 24.1 ± 0.87% | percentage of EdU-negative [2, 11]: 4.82 ± 0.37% | percentage of EdU-negative [2, 12]: 5.13 ± 0.59%
